Measured values as given in the supplement of paper PMC10567573.

B1: ZNF75A (parent)
chain: RTHTGEQPYTCSICRRNFSRRSSL

Variants of: B1
Test: protein stability index of a GFP-peptide fusion (GPS, HEK-293T) (PSI 1-6); higher = more stable
Details: c terminus: a fixed tail appended
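Further: lentivirally expressed fusions sorted by FACS into six bins by GFP to DsRed ratio, PSI derived from sequencing read proportions per bin multiplied by bin number.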

Protein stability index, by site and new letter:
R20: C 2.4, A 2.67, N 2.19, P 2.36, E 1.83, K 2.12, S 1.93, D 2.46, Q 2.13, T 2.59, F 1.72, I 1.73, H 2.53, L 2.56, M 2.15, G 3.5
T4: Q 2.33, C 2.15, G 2.91, I 3.36, M 2.66, K 2.77, Y 3.04, S 3.14, R 3.08, D 3.31, P 2.4, A 2.8, V 3.29, W 2.1, L 2.96, E 3.27, N 3.85, F 3.28, H 3.03
Q7: S 2.24, E 3.43, H 2.63, P 2.57, N 2.6, Y 2.36, G 2.45, V 2.41, I 2.63, D 3.42, F 2.8, A 3.14, K 2.59, L 2.7, C 4.67, W 2.83, T 2.49, M 2.68, R 2.96
Y9: D 2.92, S 2.55, R 2.46, V 2.58, Q 2.32, C 4.17, K 2.17, E 3.15, G 3.29, A 2.68, H 3.02, T 2.51, W 3.02, P 2.69, L 2.39, M 2.27, F 2.64, N 2.56, I 2.71
T10: Q 2.32, I 3.52, C 2.63, W 2.63, N 2.67, Y 2.5, A 2.85, E 2.37, V 3.85, G 2.18, F 2.71, D 3.48, K 2.43, M 3.48, P 3.09, L 2.88, R 2.57, H 2.85, S 2.01
S12: H 3.13, T 2.82, A 2.21, F 2.83, C 2.4, Y 2.81, K 2.63, D 3.1, I 2.53, W 2.21, L 2.04, M 2.41, N 2.52, E 2.26, R 3.07, Q 2.61, P 3.14, V 2.98, G 2.38
R15: Q 2.25, W 2.02, F 1.85, T 2.34, L 1.54, D 2.02, A 2.13, N 2.84, M 1.6, C 2, G 2.93, S 2.47, I 2.32, K 2.86, V 1.7, P 3.19, E 2.03, H 2.49, Y 1.89
G5: I 3.82, R 3.07, P 2.78, E 3.45, N 2.81, S 2.61, C 4.64, T 3.25, H 3.52, K 2.74, M 2.86, D 3.06, W 2.55, L 2.73, Y 2.21, A 2.98, F 3.38, V 2.76, Q 2.81
I13: V 3.18, E 2.71, M 2.21, Y 1.96, W 2.51, N 3.72, H 2.81, F 2.65, T 2.7, Q 2.74, P 3.44, C 2.71, D 2.65, S 2.71, L 2.25, K 3.5, A 2.54, R 2.96, G 2.42
R16: H 1.59, S 1.86, V 1.79, G 2.05, M 2.43, T 2.34, A 1.99, D 1.78, K 2.92, C 1.34, Y 1.59, E 2.53, P 2.3, N 1.99, L 1.27, Q 2.99, F 1.81, I 1.88, W 1.37
H3: W 2.15, N 3.82, Y 2.73, I 3.08, Q 2.64, M 2.57, T 2.76, V 2.65, K 3.06, R 3.47, F 3.25, G 2.76, S 3.16, L 2.75, P 3.17
F18: H 2.83, N 2.29, Q 2.41, L 2.21, T 2.28, W 2.31, R 3.99, D 2.76, M 2.49, C 2.57, V 2.8, E 1.74, G 2.38, Y 2.61, K 2.6, I 2.28, P 2.14, S 2.69, A 3.47
C11: Y 3.3, K 3.93, P 4.22, M 4.07, T 4.58, W 3.77, I 3.79, S 3.86, V 3.61, H 3.94, D 4.34, L 3.61, R 3.74, A 3.92, Q 4.39, N 4, F 3.73, G 3.37, E 4.09
C14: A 3.67, Y 3.66, P 3.6, L 3.5, Q 3.72, R 4.49, F 3.59, D 3.7, G 4.72, T 4.21, N 4.11, W 2.68, H 3.87, E 4.42, K 4.03, V 4.03, S 4.04, I 4.01, M 3.92
N17: T 3.5, C 3.01, W 2.46, G 2.75, M 2.3, I 2.18, A 3.22, R 2.99, K 3.78, Y 2.63, S 2.74, F 2.36, L 1.88, E 2.19, Q 3.17, H 2.61, V 2.62, D 2.3
S19: H 2.62, F 2.59, K 2.91, V 2.4, I 3.39, G 2.68, P 2.23, D 2.67, M 2.68, A 2.04, W 2.21, L 2.51, Q 2.72, N 3.59, E 3.05, R 2.99, T 3.25, C 2.52, Y 4.33
P8: S 2.81, D 3.4, V 3.4, T 3.76, Q 2.85, H 3.19, M 3.06, I 2.99, E 3.95, F 3.09, C 2.52, G 3.4, K 3.13, N 3.01, L 2.87, R 2.35, Y 3.16, A 2.97, W 3.05
E6: I 3.05, R 2.58, N 2.5, F 3.33, G 2.55, H 3.12, K 2.97, D 2.49, A 2.86, Q 2.62, Y 2.44, W 2.02, L 2.52, P 2.63, S 2.3, T 2.94, V 1.93, C 3.96, M 2.5
